Test results: publication doi:10.1101/071829
Read-outs that look alike come from different tables or passages of the source.

Assays:
Test in all cases: SEC
[1] = biological target: C. difficile replicative helicase CD3657, purified non-tagged (Clostridium difficile 630)
[2] = biological target: C. difficile replicative helicase CD3657, purified non-tagged (Clostridium difficile 630); remark: listed apart in the source
[3] = biological target: C. difficile putative helicase loader ATPase CD3654, purified non-tagged (Clostridium difficile 630)
[4] = biological target: C. difficile replicative helicase CD3657, purified non-tagged (Clostridium difficile 630); remark: listed apart in the source

“C. difficile replicative helicase CD3657, purified non-tagged (enzyme)” was tested. Which stoichiometry N [1] did it give?
Its stoichiometry N is 6.

And the stoichiometry N [2]?
The stoichiometry N was 6.

What about the stoichiometry N (CD3657 per CD3654 (6:6)) [3] of the same substance?
Its stoichiometry N (CD3657 per CD3654 (6:6)) is 1.

What about the stoichiometry N [4] of the same substance?
The stoichiometry N was 6.
